# Patent US20040180443, “Methods for transfer of DNA segments” (Stratagene, published 2004)
# Target: Cre recombinase (Bacteriophage P1?, UniProt P06956 P06956:1-343)
# Experiment: in vitro loxP x loxP plasmid co-integration, 50 mM Tris pH 7.5, 10 mM MgCl2, 30 mM NaCl, 37 C 45 min; read out by product vector rescue in E. coli (1.2x10^4 and 8.2x10^5 colonies per ug second vector)
# Details: tags: Stratagene; chain copies: 4
# Experimental: To rescue the product vector from the co-integrate vector, chemically competent XL1-blue or XL10 gold (kanR) (both strains from Stratagene, LaJolla, Calif.) were transformed with the above recombination reaction. Either strain has high transformation efficiencies and carries the F′ plasmid required to render the host infectable by filamentous phages such as f1. Transformation was performed by mixing 2.5 μl of the recombination reaction with 100 μl of competent cells, incubation on ice for 20 minutes and subsequent hear shock at 42° C. for 45 seconds. After the heat shock, 1 ml of 1×NZY, 10 μl of Exassist helper phage (10⁸ pfu; Stratagene, LaJolla, Calif.) and 100 μl of a fresh stationary culture of XLOLR-S^R were added and incubated for 2 hours at 37° C. while shaking. The XLOLR-S^R strain serves as the secondary host. The secondary host can be selected for with Streptomycin. Exassist is used as a helper phage allowing packaging of the rescued single-stranded product vector. […]
# Plasmid DNA of 18 blue colonies were analyzed by restriction digestion. […] All white colonies analyzed by restriction digestion were indistinguishable from the second vector and presumably resulted form mutations in the rpsL insert serving as the negative selectable marker. […]
# Cre recombinase, sequence (P06956 whole entry, one chain of several): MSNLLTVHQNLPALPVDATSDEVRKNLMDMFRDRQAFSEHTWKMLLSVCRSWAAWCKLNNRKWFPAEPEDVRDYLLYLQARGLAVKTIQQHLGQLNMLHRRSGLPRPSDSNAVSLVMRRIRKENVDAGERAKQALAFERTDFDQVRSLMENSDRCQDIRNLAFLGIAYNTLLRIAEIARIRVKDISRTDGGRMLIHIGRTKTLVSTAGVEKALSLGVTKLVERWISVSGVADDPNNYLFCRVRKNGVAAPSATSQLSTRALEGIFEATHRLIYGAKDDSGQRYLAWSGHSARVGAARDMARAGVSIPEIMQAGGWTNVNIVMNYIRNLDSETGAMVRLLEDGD
binder,measurement,value
loxP site (wild type) in first and second vectors (dsDNA) DNA 1: CGAATTGGAGCTATAACTTCGTATAATGTATGCTATACGAAGTTATCATATGGCGGTGGCGGCCGCTCTAGAAC DNA 2: GTTCTAGAGCGGCCGCCACCGCCATATGATAACTTCGTATAGCATACATTATACGAAGTTATAGCTCCAATTCG,binding result,binds
